# Laboratory results reported in the supplement of paper PMC9170038.
# Tested on: K4 kissing-loop RNA reporter
# Experiment: apparent KD of K4 kissing-loop reporter; higher = weaker reporter binding
# Settings: Eterna round: R107
# Protocol: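 RNA-MaP round R107: designed RNA switches with theophylline, tryptophan, arginine or FMN aptamers are transcribed on-chip within common flanks. They are titrated with a labelled K4 kissing-loop RNA reporter in RNA-MaP buffer (100 mM Tris pH 7.5, 80 mM KCl, 4 mM MgCl2), without ligand or with the indicated ligand. Median apparent KD per design.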
# [1] = input ligand: theophylline 20 uM
# [2] = input ligand: tryptophan 2.4 mM
# 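Note: bound reporter read as fluorescence of individual clusters on recovered sequencing chips by microscopy, with normalized cluster intensities fitted with a binding model.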
Sequence,apparent KD of K4 kissing-loop reporter (input ligand: FMN 200 uM) [µM],apparent KD of K4 kissing-loop reporter (input ligand: arginine 13.2 mM) [µM],apparent KD of K4 kissing-loop reporter (input ligand: none) [µM],apparent KD of K4 kissing-loop reporter [1] [µM],apparent KD of K4 kissing-loop reporter [2] [µM]
UUAGAGGCCCAGUGAUGUUGGGUGGUUGGGCGAGGACCGGUACGGCCGCCACUCGCCGCGGAACUAUCGGAAUCUCGCUCGGCUA [Aninxearqu],0.277,0.233,0.239,0.309,0.256
AAUCAAUACAGAAGGAGCGUGACAAUUACUAUUGAAUUAGGAGCUAGUGAUGUUAGCAUAACACAGGUAGGUCGCUGUACAUUUA [JR_SSArginiB_Sub012],0.145,0.175,0.163,0.182,0.148
UAUCAGAUUACUGAUACCAGUCUAAAGACAGUGAUGUUGUCUGAUCGACCACGAUCAAAGGACCCUUGGCAGCAGUGUACUAUUC [#29 K4 Theophylline B Same State],0.197,0.203,0.192,0.188,0.199
AGUGAUGUGGGAAGGAGCGGUAUAAGAAUUCAGUGAUGUUGAAGUGUUGCAGAAAUAAAAGGCCAGGUAGGUCGCCUAGAUGUUA [KL-XARG B29],0.347,0.384,0.454,0.519,0.243
AAUAACUAGUAUUUUUUUAAUAAUACAGAUACCAGUGAUAAUAAACACCCUUGGCAGCUGAUCGAGUGAUGUUCGUUUAUUUUAA [JR_SSTheophyA_Sub003],0.0573,0.0833,0.064,0.112,0.054
GGGAGCAAAGCUCCCGGAUGCUAUUACCAGGAGGAUAUCUGGAAACAGAGAAGGCCUAAGCCAGUGAUGUUGGUUUCGAGCAUCC,0.184,0.257,0.278,0.305,0.274
AUGUUGAGCGGAAGGAGCGGCUGAGCCAGUGAUGUUGGUUAAUCCAAGUGAUGUUGGAAAAGCCAGGUAGGUCGCCGUUUUACGU [whbob_SS_Arginine_B_2t145],1.01,0.597,1.19,0.807,0.887
AACAGCAAUGCGGCCGCCACUUCGAGGUCAGUGAUGUUGACGGGAUUAAAUAAAGAUCCCAAGAGGAGGACCGGGCAGUGCUGUU [whbob_SS_Tryp_B_t26],0.225,0.195,0.215,0.176,0.192
GUCCACACUGCAGGAUAUGGAGGAAUAGCGAGGGAGUGUGGAAGCACACCUCUGGCAGUGAUGUUGCCAGAAGGGCGGUGCGGCG [Cemaorar],0.111,0.0755,0.0764,0.069,0.0934
UGCAGUGAUGUUGCUAUUUUUCUUGAUUAACGAGGACCGGUACGGCCGCCACUCGAUUUCUCUCUAAUCCAGUAUGUUGUUUAGU [JR_ExcTryptoA_Sub001],0.111,0.144,0.121,0.14,0.0904
AAAUUUUCAAGUGAUACCAGACAUCUCUAUUACAUUAAUAUAGCUAAGUGAUGUUUAGCAGUCCCUUGGCAGCACAAUUUAAUUA [JR_SSTheophyB_Sub013],0.255,0.202,0.297,0.337,0.215
GGUCCGGGCUCGGCCGCCACUCCCUCGUACCGCAAGGUAUGAUACCGAGUGAUGUUCGGUUGGAGGAGGACCGGGAGCCCGGACC [#2 Exclusion - Tryptophan B Attempt #9 (HarryS)],0.112,0.11,0.132,0.124,0.1
AAAAUAAUCCAGUGAUGUUGGUUUCCAGAUACCAGCGACGAAAGUCGCCCUUGGCAGCUGUGGACGUACAAAAUAAGUACGUCCU,0.318,0.362,0.359,0.276,0.3
UUAAUAAUUCAAGGAUAUGUUUUCUAUUUCGAGUGAUGUUCGGAAUUAAUAAAUUUAAAAGAUUAUACAGAAGGUGAUGGAUAGU [Cynwulf-mod#4],0.114,0.117,0.109,0.129,0.0903
AGUGGACGUGUCCGGAGUGAUGUUCCGGAUACCAGACACGAAAGUGUCCCUUGGCAGCCGGAGUAAAGUUCCGGCGUUCACUAAA [#26 K4 Theophylline A Exclusion],0.109,0.0778,0.111,0.0672,0.105
AUUAAUUUCAGAGGAUAUCGUUAUUUUUUAUAGUAUAUUCAAUUAUGCAGUGAUGUUGCUAUUAAUCGAGAAGGCUGAUUUAUAA [JR_ExcFMNB_Sub002],0.179,0.204,0.156,0.25,0.112
GGUAUCCAGUACCAUUGCGUUAAAACAGAAGGAGCGAGUAUGGACUCAGGUAGGUCGCUGUUUAUAGUCGAGUGAUGUUCGAAUC [Same State Arginine A GF 15],0.237,0.28,0.281,0.316,0.222
UAAUUGCAGUGAUGUUGCAAAUGUCCUGACUAGGAUAUCAGGAAACUGAGAAGGAGUCCCUUCUAUUGCAACAAGAAGGAGGAUA [KL-SSFMN-A14],0.312,0.3,0.347,0.338,0.287
CUAGAAGUGAUGUUUCAUAGUAAAUCUGAUACCAGCAUUAAACCCUGCCCUUGGCAGCAGAAUGGGCUGAUAGACUCCUGCAGCU [theeternabot_sameState_KL_Theo_A_36],0.22,0.199,0.228,0.208,0.182
CCAUUCAUCAGAAGGAGCGUCAAGUGAUGCUAUCCAGUGAUGUUGGAUAGCACGGAACAGUGACAGGUAGGUCGCUGAUGAGAGC [Arg B SS t8],0.121,0.106,0.115,0.0957,0.131
UGCUUAAUGGAAGGAUAUUAGGGUUCGACCGCGUAUCAUUGUUAGUCUGGCCAGUGAUGUUGGCCUUAAGAAGGUCCGCUACGGU [theeternabot_exclusion_KL_FMN_B_27],0.207,0.201,0.171,0.204,0.13
GGGAGUAGUGCGGCCGCCACUGAGAAAGAAGAAGAAUAUAGUGAUGUUAUAUAGGAAUAAAAGAAUAGGACCGGGCAUUAGAUUU [SSTRyptB.S],0.165,0.245,0.269,0.215,0.159

Sequence,apparent KD of K4 kissing-loop reporter (input ligand: FMN 200 uM) [µM],apparent KD of K4 kissing-loop reporter (input ligand: arginine 13.2 mM) [µM],apparent KD of K4 kissing-loop reporter (input ligand: none) [µM],apparent KD of K4 kissing-loop reporter [1] [µM],apparent KD of K4 kissing-loop reporter [2] [µM]
AAAUCGUUCAGAAGGAGCGUGGUAUAAUCAUUAAUAUUUAUUACGAGUGAUGUUCGUAAUUCACAGGUAGGUCGCUGAUCGAUAA [JR_SSArginiB_Sub006],0.0886,0.0946,0.086,0.0998,0.0827
CUAUCCCGCCGUGUAUGUAGUAUACGGUGCCGAGGACCGGUACGGCCGCCACUCGAUAAGCUUUGUCGGAGUGAUGUUCCGACCG [Soleesen],0.277,0.181,0.213,0.263,0.265
CUCGAGUGAUGUUCGAUUAUUUAUACAGAUACCAGUGAAUUUUAACACCCUUGGCAGCUGGUUGUAUCUUUGUUUUUUACACAAG [JR_ExcTheophyA_Sub006],0.117,0.177,0.118,0.172,0.107
UAAUAUAAUCUGUCGUUUACAAUAUUUAGUCAGGAUAUCGUAUAUUCGAGAAGGGACACUAUCUAGUGAUGUUAGAUAUUUCUUU [JR_ExcFMNA_Sub014],0.0479,0.0781,0.0559,0.067,0.0519
AAUUUAGUGACGGCCGCCACUAUGGUGAUUUAUUUGUUUGAGUGAUGUUUUGAUGUUUGAUUUUGUAGGACCGGGUUAGGUGAUG [aaacmullin],0.355,0.293,0.364,0.354,0.279
AAUAACUAGUAUAUUUGUAAUAAAACAGAUACCAGUGAUAAUAAACACCCUUGGCAGCUGAUCGAGUGAUGUUCGUUUAUUUUAA [JR_SSTheophyA_Sub004],0.102,0.0965,0.124,0.13,0.0785
CAAUGAGUAUAAGAUGAUAUCAUCACAGAAGGAGCGAGUGAUAACUCAGGUAGGUCGCUGAAUUUAUCGAGUGAUGUUCGAUAGA [whbob_SS_Arginine_A_sa118],0.207,0.158,0.199,0.175,0.17
GGAUCCGCCAGUGAUGUUGGAGAAAACUCCAAGGAUAUGACGAAAGUCAGAAGGUGGUAGACUGGACAAAGUCCGGUCGGAUCCA [FmnA 26 #SwitchBubble #K4Early],0.761,0.331,0.932,0.157,0.442
UGGAGUUGACGAAAAGUCAACUCCGGAGAAGGAGCGGACGAAAGUCCAGGUAGGUCGCUCCCUACCAGUGAUGUUGGUACUGAAA,0.244,0.241,0.209,0.319,0.181
CAUACGCAUGGAGGAUAUGGGAUUUCUCAUAUUAACCUGUAUCAGGUAUCUCAGUGAUGUUGAGACUCAGAAGGCCAUGUGUAUG [Ex FMN B 25],0.494,0.303,0.364,0.354,0.344
CUGGGUUGACGAAAAGUCAACAAAAGAGAAGGAGCGCACGAAAGUGCAGGUAGGUCGCUCAAUCCAGUGAUGUUGGGUCAUCCAG [#SwitchBubble 14 #K4Late],0.568,0.58,0.8,1.11,0.869
AUCUAUGAGCGAGGAUAUGCAUGACGCGAGUGAUGUUCGCGAUGUGGGCGUGAUUAGUAAUAUGAAGCAGAAGGCGCACUCAUGA [Exclusion - FMW B / A],0.216,0.111,0.153,0.116,0.129
UUUAUAAGGUCGGCCGCCACUGGAUUUAUGUUUGUUUCGUCUGGAUCAAAGUGAUGUUUUGAGUCCAGGACCGGGACAUUUGUUA [whbob_Ex_Tryp_B_w39],0.0866,0.0765,0.0793,0.0756,0.0905
AAUAAAAUCACGGCCGCCACUGGUACUAGUAUUAGCAGUGAUGUUGCUAUGUAUAAUUUAUUAAAUAGGACCGGGUGAAUAUUUA [#27 K4 Tryptophan B Exclusion],0.326,0.281,0.238,0.233,0.208
GGUGUUGUUUGUGCCGCCUUCCUCGUUCCUCGAGGACCGGUACGGCCGCCACUCGAGUGAUGUUUGGGUAGCGAUCCCUGUUAGU [Bdazzled - #11 Exc. Tryptophan A],0.764,0.573,0.892,0.638,0.778
CUUCGAUUAACAGAUACCAGUCACUUUGGAGCCACACACAAGUGAGUGAUGUUCACUUGUGACCCUUGGCAGCUGUUAGUCGAAG [Theo B Ex t1],0.0928,0.0754,0.0834,0.0876,0.0881
ACUUGCACAAAGUCGUCAACCGGUGAAUCAAAGGAUAUUAAUUCACUAAGAAGGUUGAGCCGAGUGAUGUUCGACUGUAAGUCCC [theeternabot_exclusion_KL_FMN_A_34],0.415,0.382,0.551,0.506,0.348
GGAGGGAUCUCGGCCGCCACUCAUAAGAAAUGAACCUAAGAAAUAUAGUGAUGUUAUAUAAAGAAGAGGACCGGGAGAAAGGAGG [ExTryptoB.A],0.148,0.171,0.197,0.555,0.171
GGUGCUGGCCAGUGAUGUUGGCGAAUACUGAAGGAUAUGAUAGGCGUCAGAAGGUCAAGAGUAAUAUCUAGAAUGAAUAGUGAUA [theeternabot_sameState_KL_FMN_A_38],0.296,0.289,0.329,0.439,0.285
GUUUUAUAAGAGGAUACCAGUACAAAUAAAGUACAUUAAUAGUAGAGUGAUGUUCUAAAGUACCCUUGGCAGCUUAGAUUAAGUU [ExTheophylB.E],0.147,0.236,0.17,0.252,0.116
UGGACCAAGGAGUGAUGUUCCAAAUGUGAUACCAGCCACGAAAGUGGCCCUUGGCAGCACUGCCAGGACGAAAACGUCCGGUCCU [#SwitchBubble 12 #StaticStem #K4Early],0.358,0.367,0.391,0.777,0.261
